Source: the supplement of paper PMC10126150
± gives the standard deviation of the averaged measurements.

System: ATP
Test: switch fluorescence ratio, 500 uM ATP over buffer (Cy3 cluster intensity, sum of 5 cycles each) (fold (ratio)); higher = stronger signal-on switching upon ATP binding; sequences stand for … in TCGTCGGCAGCGTCAGATGTGTATAAGAGACAGTTTTTTTTTTTTTTTTTTTTTTTTT…TC
Conditions: aptamer strand: ATP DNA aptamer (quencher-CACCTGGGGGAGTATTGCGGAGGAAGG + anchor), 100 nM annealed; ATP concentration: 500 uM
In short: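 Cy3-labelled switching-strand clusters on a modified Illumina MiSeq flow-cell were annealed to 100 nM quencher-labelled ATP aptamer and imaged first in selection buffer, then after 15 min with 500 uM ATP at 22 °C. NaOH stripping and re-annealing separated each of five buffer/ATP cycles, and clusters outside 100-1000 RFU were excluded. The fluorescence ratio sums target-cycle Cy3 intensity over buffer-cycle Cy3 intensity per cluster and averages it per switch-domain sequence.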
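Further: ATP exposure 15 min at 22 °C before imaging.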

| Sequence | switch fluorescence ratio |
| --- | --- |
| TGGGTAAGGA | 1 ± 0.026 |
| GAGGTAGGGG | 0.968 ± 0.021 |
| GACGATAGTT | 0.977 ± 0.026 |
| ATGCCGGGAT | 1.02 ± 0.02 |
| TGAGGAATTT | 1 ± 0.029 |
| ATGTTTGTCT | 0.97 ± 0.039 |
| TGAGTGACTT | 0.974 ± 0.012 |
| TCCATGTTCT | 0.992 ± 0.034 |
| GGGGACTTTC | 1.03 ± 0.017 |
| TTGTTCTGGA | 0.977 ± 0.056 |
| TTGGGGGACC | 0.998 ± 0.025 |
| AATGGCATCG | 1.02 ± 0.011 |
| TAGAATCGCT | 1 ± 0.049 |
| ACGGGGATTT | 1.01 ± 0.019 |
| AAAGGATATG | 0.995 ± 0.018 |
| TTCCGGGTG | 3.14 ± 0.75 |
| TTGGAGTCCC | 0.99 ± 0.022 |
| CCCTAGGTTT | 1.73 ± 0.79 |
| AATGGGGATC | 0.984 ± 0.062 |
| TTCATCATAG | 1.05 ± 0.029 |
| GAGGCGCGGA | 1.01 ± 0.013 |
| GGCAGTCACG | 1.02 ± 0.014 |
| GAAGCCTTGG | 1.009 ± 0.004 |
| CAGGGGGTTG | 0.9866 ± 0.0018 |
| TTGGCCGGG | 0.9643 ± 0.009 |

| Sequence | switch fluorescence ratio |
| --- | --- |
| AAGGGTTGG | 0.99 ± 0.015 |
| TTAAAGTGAG | 0.99 ± 0.037 |
| AACGCCGGCC | 1.01 ± 0.057 |
| GGAAATTGTG | 1.04 ± 0.052 |
| TCAGTTATGG | 1.001 ± 0.0086 |
| GAACTAGGGG | 1.05 ± 0.088 |
| AGAAACAAGG | 0.979 ± 0.027 |
| TGATCCTATG | 0.992 ± 0.016 |
| AGGGGGTTTC | 1 ± 0.022 |
| ATTTTCTGTA | 1.0017 ± 0.00088 |
| CTCGGCTGCG | 0.969 ± 0.084 |
| TTCAATATAG | 1.21 ± 0.29 |
| AAGGCTAATG | 0.953 ± 0.011 |
| AATGCAACTT | 1.01 ± 0.032 |
| AGTACGATAT | 1.14 ± 0.025 |
| AGGTGACGG | 0.993 ± 0.058 |
| AGGGACTGGG | 0.993 ± 0.038 |
| CGAGTCAGTG | 0.979 ± 0.065 |
| ATGTAGAGAT | 0.97 ± 0.016 |
| TATACCATTA | 0.997 ± 0.051 |
| ATTTTGTGGT | 1.01 ± 0.011 |
| AGAGTATTTG | 0.994 ± 0.014 |
| TCCTGGCAAA | 1.59 ± 0.6 |
| TTGGTGTAGC | 0.972 ± 0.026 |
| ATTAGGCATG | 1 ± 0.042 |

| Sequence | switch fluorescence ratio |
| --- | --- |
| ATCTAAATAA | 1.03 ± 0.019 |
| GACTGGGGGA | 1.01 ± 0.025 |
| TTTAGGTACG | 1 ± 0.018 |
| ATGCGCAGAA | 1.01 ± 0.034 |
| TTGAGTTGGT | 0.95 ± 0.025 |
| GTGTATATAC | 0.993 ± 0.013 |
| GAAGAAGGTT | 0.99516 ± 0.00083 |
| ACCGTTACTT | 1.24 ± 0.065 |
| TTGCTATCAG | 1 ± 0.047 |
| TTGTATGTGT | 0.983 ± 0.032 |
| GCTTGAGTTC | 1.03 ± 0.025 |
| GAGGGCATCA | 0.99 ± 0.015 |
| CATTGAGTTG | 0.973 ± 0.018 |
| TTTGGTAGAG | 0.98 ± 0.018 |
| TTGAACTACT | 1.03 ± 0.016 |
| TTGGACTAGT | 1.018 ± 0.0023 |
| GGGTACGGGG | 1 ± 0.03 |
| GCAGGGGGCC | 1.4 ± 0.63 |
| CGGTTTCGTG | 0.995 ± 0.018 |
| AATGTCTTTG | 0.984 ± 0.013 |
| GCGGGCTTGG | 0.974 ± 0.015 |
| ATTTGAGTAT | 1.004 ± 0.0093 |
| CGGATGAGTA | 0.988 ± 0.029 |
| CGTAAAATTT | 1.05 ± 0.12 |
| TTGGAAAATT | 1.21 ± 0.35 |

| Sequence | switch fluorescence ratio |
| --- | --- |
| AGTTTTAGCC | 1 ± 0.027 |
| TAATCTTAGA | 0.99489 ± 5.2e-05 |
| CGCAGTAGTG | 1.16 ± 0.032 |
| TCTGAGAGGG | 1 ± 0.017 |
| TGCTTGTTCG | 1.029 ± 0.0097 |
| TCACTGGGTC | 1.05 ± 0.023 |
| CCATGGTAGT | 1.028 ± 0.0029 |
| CATGTGGGGA | 1.021 ± 0.004 |
| GGCACTATAT | 1.04 ± 0.023 |
| AAAGTGTGC | 1.07 ± 0.03 |
| TAATCGTGTT | 0.983 ± 0.014 |
| GCACATGAGA | 1.02 ± 0.021 |
| ATTTCCTTTG | 1.021 ± 0.006 |
| CTCTATGTTA | 1.02 ± 0.076 |
| TGAGGGGGAA | 1.03 ± 0.033 |
| GGTGTGCATA | 0.994 ± 0.028 |
| TATCTTACCA | 0.988 ± 0.032 |
| GAAGAAGGGT | 0.99 ± 0.017 |
| TTAAAAGATT | 0.99 ± 0.075 |
| GATAGGGGGC | 1.13 ± 0.28 |
| GGAGAATTTT | 1.04 ± 0.049 |
| CCTGAGGAGG | 0.997 ± 0.014 |
| TCGATTAGGG | 1.04 ± 0.017 |
| TATCGCTCAT | 0.9765 ± 0.0073 |
| CGTTCCGGGC | 1.2 ± 0.12 |

| Sequence | switch fluorescence ratio |
| --- | --- |
| TAAAATAGTG | 0.997 ± 0.047 |
| CCCCTTGTTC | 1.01 ± 0.02 |
| TAGGATCTGG | 0.995 ± 0.027 |
| GCTATTTTCG | 0.99 ± 0.023 |
| GAAGGGGTCG | 1.05 ± 0.046 |
| CGATTTTCGT | 0.998 ± 0.044 |
| AACTTTGGGG | 1.01 ± 0.068 |
| ACGGGGCTGT | 0.996 ± 0.017 |
| CCAGAACCGG | 1.01 ± 0.0022 |
| GATGTATGGG | 0.984 ± 0.015 |
| ATTCATCGCT | 1.0258 ± 0.00018 |
| ATGTAGTCGG | 0.978 ± 0.012 |
| TTTATCGATT | 0.991 ± 0.036 |
| GAAGACTGGG | 1.02 ± 0.051 |
| TCGATAGTTC | 1.03 ± 0.028 |
| TTGACCCGAC | 1.4 ± 0.39 |
| CGGAAACTAG | 1.022 ± 0.0038 |
| GCGACGAGTA | 1.074 ± 0.004 |
| CCAGGGATCA | 1.049 ± 0.0023 |
| TTTTGATTAC | 1.01 ± 0.065 |
| GCGGCGGATC | 0.987 ± 0.038 |
| GAGTCGGCCT | 0.975 ± 0.012 |
| TTATTTAGAG | 0.985 ± 0.027 |
| GGAAGAGGTG | 1.09 ± 0.022 |
| ATGAGGGGTG | 1.013 ± 0.0076 |

| Sequence | switch fluorescence ratio |
| --- | --- |
| TTTTGAGTGG | 0.995 ± 0.025 |
| GGGGGGGATG | 0.991 ± 0.029 |
| TTGTGTGACT | 0.991 ± 0.04 |
| AAAAAGCAGG | 1.13 ± 0.14 |
| ATTGCCCGCG | 1.0228 ± 0.00058 |
| GCATAGAGCG | 1.02 ± 0.065 |
| ACGTGTGTGG | 0.989 ± 0.017 |
| CCAGATTGGG | 1.004 ± 0.0052 |
| GCGATCAGAG | 1.04 ± 0.037 |
| CATAATAACC | 1.03 ± 0.018 |
| CCCGGGAAAA | 0.943 ± 0.03 |
| AAGAATCTGC | 0.985 ± 0.051 |
| GTTGAGGGGT | 0.993 ± 0.027 |
| GTTCAACTCA | 0.993 ± 0.012 |
| TACGGGGAGT | 0.998 ± 0.026 |
| CGGGCCGGGT | 0.976 ± 0.031 |
| CAGAGTATCG | 1 ± 0.021 |
| TGCGTCGCCT | 1.013 ± 0.0049 |
| CAGTACCGGA | 0.9935 ± 0.0044 |
| TATTTTATTT | 1 ± 0.018 |
| CAGGGTTATT | 0.995 ± 0.02 |
| GTGAGAGAGT | 0.962 ± 0.015 |
| AATGGGTTGT | 1.02 ± 0.032 |
| AGCATGCCTG | 1.02 ± 0.058 |
| ACATATTTTA | 1.03 ± 0.016 |

| Sequence | switch fluorescence ratio |
| --- | --- |
| GCTATATGTA | 1 ± 0.031 |
| TTAAATAACT | 1.12 ± 0.16 |
| GTGGTTAAGA | 0.9961 ± 0.002 |
| TTTTTTACCA | 1.01 ± 0.036 |
| TTTATATACG | 0.991 ± 0.017 |
| GGAGAACGAT | 1.03 ± 0.027 |
| TTTTTTACCG | 1.02 ± 0.04 |
| AAAAAGGGCA | 0.995 ± 0.061 |
| AGGAACATAG | 1.15 ± 0.2 |
| ATATTTCTGT | 0.981 ± 0.019 |
| TTTTTCTGTT | 0.984 ± 0.039 |
| CCACATTGTA | 1.01 ± 0.018 |
| TGGGGCGTAT | 1.04 ± 0.039 |
| AGGGGTAACG | 0.9807 ± 0.0098 |
| AATGAACGGG | 0.981 ± 0.0089 |
| CATTTTGGTT | 0.995 ± 0.036 |
| TATTGGTATG | 1 ± 0.017 |
| AAGGGTCAGG | 1.02 ± 0.017 |
| TTGGGGTACG | 1.01 ± 0.021 |
| ACTTTGGCC | 1.0113 ± 0.00058 |
| TCGTATCAAG | 0.969 ± 0.026 |
| TTGACGAGCG | 1.13 ± 0.051 |
| TCATGTTGAT | 1 ± 0.071 |
| CCCGTTGGTT | 1.27 ± 0.34 |
| CGTTAAGTTA | 0.974 ± 0.012 |

| Sequence | switch fluorescence ratio |
| --- | --- |
| GTGGAGGCGC | 0.989 ± 0.023 |
| GCTTACTGTA | 1.15 ± 0.024 |
| ATGATCAACG | 0.999 ± 0.015 |
| GGAATCTGCC | 1.14 ± 0.024 |
| ATGTAATAA | 1.022 ± 0.0049 |
| AGAGTGAGGG | 0.977 ± 0.0012 |
| ATCCTGGGGG | 1.4 ± 0.7 |
| GGGCTGATCT | 1.04 ± 0.045 |
| GGGTTGGGTG | 1.01 ± 0.042 |
| AAATTGCCTG | 1.01 ± 0.047 |
| GCGAGTGTTT | 1.02 ± 0.048 |
| TCGAGCGCAC | 2.54 ± 0.34 |
| GTATGCCGGG | 0.939 ± 0.057 |
| TGGGAAATGG | 1 ± 0.024 |
| ATGATCTAGT | 1.03 ± 0.064 |
| TTGGGAGCGT | 1.01 ± 0.017 |
| TAGTATTTAG | 1.024 ± 0.00096 |
| CAACGGGGCG | 0.999 ± 0.028 |
| CAATAGCTAT | 1.06 ± 0.022 |
| CGAGGGTTAT | 1.005 ± 0.0054 |
| GCTATTAAAG | 1 ± 0.026 |
| CAATGAGGAA | 1.02 ± 0.018 |
| AGTTAAGATA | 0.9907 ± 0.0031 |
| GCAGTCCGAG | 1.07 ± 0.043 |
| GGGGCGAGG | 0.994 ± 0.053 |
